# Measurements from IntAct's records for PubMed 17997972.
# B1: Nuclear distribution protein nudE-like 1 (Homo sapiens), Q9GZM8 (parent)
# chain: MDGEDIPDFSSLKEETAYWKELSLKYKQSFQEARDELVEFQEGSRELEAELEAQLVQAEQRNRDLQADNQRLKYEVEALKEKLEHQYAQSYKQVSVLEDDLSQTRAIKEQLHKYVRELEQANDDLERAKRATIVSLEDFEQRLNQAIERNAFLESELDEKESLLVSVQRLKDEARDLRQELAVRERQQEVTRKSAPSSPTLDCEKMDSAVQASLSLPATPVGKGTENTFPSPKAIPNGFGTSPLTPSARISALNIVGDLLRKVGALESKLAACRNFAKDQASRKSYISGNVNCGVLNGNGTKFSRSGHTSFFDKGAVNGFDPAPPPPGLGSSRPSSAPGMLPLSV
# partner: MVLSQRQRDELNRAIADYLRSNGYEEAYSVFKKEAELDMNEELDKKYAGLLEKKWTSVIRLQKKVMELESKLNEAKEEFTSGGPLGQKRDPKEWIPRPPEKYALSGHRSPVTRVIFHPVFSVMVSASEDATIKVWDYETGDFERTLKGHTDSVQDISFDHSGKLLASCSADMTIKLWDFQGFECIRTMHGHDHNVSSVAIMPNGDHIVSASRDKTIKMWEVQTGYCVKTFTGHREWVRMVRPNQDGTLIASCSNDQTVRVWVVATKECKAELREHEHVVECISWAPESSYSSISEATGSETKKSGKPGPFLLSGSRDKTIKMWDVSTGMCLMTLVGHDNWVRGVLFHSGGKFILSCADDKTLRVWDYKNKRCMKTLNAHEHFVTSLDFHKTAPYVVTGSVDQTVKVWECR
# Variants of: B1
# Conditions: with lis1_mouse Pafah1b1, P63005
row,effect of a mutation on the interaction,Variant
1,disrupting interaction,E119A
2,disrupting interaction,R130A
